Here are results for two molecules from PMC3155373 (2011).

For the assay, the target named is Green fluorescent protein (acid-denatured) (Aequorea victoria, UniProt P42212 = GFP). In words: GFP refolding fluorescence kinetics (one-site fit, apparent Kd).

B1: Protein disulfide isomerase (HuPDI) (protein)
chain: not shown
For the molecule B1, the Kd is 180 nM.

B2: Protein disulfide isomerase (YPDI) (protein)
chain: PEDSAVVKLATDSFNEYIQSHDLVLAEFFAPWCGHCKNMAPEYVKAAETLVEKNITLAQIDCTENQDLCMEHNIPGFPSLKIFKNSDVNNSIDYEGPRTAEAIVQFMIKQSQPAVAVVADLPAYLANETFVTPVIVQSGKIDADFNATFYSMANKHFNDYDFVSAENADDDFKLSIYLPSAMDEPVVYNGKKADIADADVFEKWLQVEALPYFGEIDGSVFAQYVESGLPLGYLFYNDEEELEEYKPLFTELAKKNRGLMNFVSIDARKFGRHAGNLNMKEQFPLFAIHDMTEDLKYGLPQLSEEAFDELSDKIVLESKAIESLVKDFLKGDASPIVKSQEIFENQDSSVFQLVGKNHDEIVNDPKKDVLVLYYAPWCGHCKRLAPTYQELADTYANATSDVLIAKLDHTENDVRGVVIEGYPTIVLYPGGKKSESVVYQGSRSLDSLFDFIKENGHFDVDGKALYEEAQEKAAEEADADAELADEEDAIHDEL
As to B2, the Kd is 300 nM.
